Test results: patent US20220127569A1, “METHODS OF PROMOTING THYMIC EPITHELIAL CELL AND THYMIC EPITHELIAL CELL PROGENITOR DIFFERENTIATION OF PLURIPOTENT STEM CELLS, RESULTING CELLS, AND USES THEREOF” (THE TRUSTEES OF COLUMBIA UNIVERSITY IN THE CITY OF NEW YORK, priority 2019, published 2022)

Assays:
pluripotent cells = assay: OCT4 expression (qPCR) in day 30 hES-TEP cultures after survivin inhibitor treatment; format: cell-based, human; conditions: YM155 20 nM in the final 24 hours of culture, protocol #4c vs #4c+YM155
Protocol: After 108 hours in total on low-adherence plates with endoderm induction media (described above), embryoid bodies were collected and, without being trypsinized, plated on matrigel-coated, 24-well tissue culture plates (approximately 50,000-70,000 cells/well) in SFD medium supplemented with 200 ng/mL recombinant human (rh) Noggin and 10 μM SB431542 (NS) (as described in established protocols Green et al. 2011), with Retinoic Acid (0.25 μM) and FGF8b 50 ng/mL (as a novel modification of this protocol) for 48 hours. […]
(§1) Quantitative Real-Time PCR Total RNA from clusters of ES cells differentiated for the indicated time with the indicated culture method was extracted using Trizol (Invitrogen), and Direct-zol RNA Miniprep Kit (Zymo Research) according to the manufacturer's instructions. […] Real-time quantitative PCR was performed in 20 ul volume using ABI Power SYBR Green PCR Master Mix on an ABI ViiA7 Thermocycler (Applied Biosystems Life Technologies). […] Quantification of each gene transcript was obtained by comparing the average of triplicate experimental CT values to a standard curve of serially diluted genomic DNA for each primer target and then normalized by dividing by the CT housekeeping gene b-Actin.

NSG mice = assay: Teratoma formation after hES-TEP transplantation in mice; format: in vivo, mouse; conditions: mice grafted with day 30 hES-TEPs treated with YM155
Protocol: Six to ten week old NSG mice were thymectomized as described (Khosravi-Maharlooei et al. 2020) and allowed to recover for at least 3 weeks. After recovery, animals were conditioned with 1.8 Gy total body irradiation (TBI) via X-rays. Cryopreserved fetal swine thymus (60-90 days gestation) was thawed in Medium 199 supplemented with DNAse, gentamicin and HEPES as above. Fetal swine fragments (1-2 mm^3) were injected or not with 2×10^5 hES-derived TEPs with a 28 gauge syringe and coated with 50% matrigel (Corning) in Medium 199. Four to 24 hours after TBI, 1-2×10^6 hES-derived TEPs mixed with 1-2×10^6 thymic mesenchymal cells, 1-2×10^6 thymic mesenchymal cells alone, fetal swine thymus injected with hES-TEPs or fetal swine thymus alone were implanted beneath the kidney capsule and 2×10^5 fetal human CD34+ cells were injected intravenously. Peripheral human immune reconstitution was assayed every 2-3 weeks post-grafting after full recovery as indicated. Blood was collected from the tail vein and immune populations enriched by density gradient centrifugation with Ficoll as described above. […] Gene correlations were evaluated with Pearson Correlation Coefficient with p<0.05 considered significant, linear regression was also performed and r-square determined. Euthanasia due to teratoma growth was plotted on a Kaplan-Meyer plot and analyzed by Mantel Cox Log-rank test to determine p-value. […]

hESCs = assay: qPCR gene expression (PAX9, FOXN1) in hESC-derived TEP cultures up to day 30; format: cell-based, human
Protocol: After 108 hours in total on low-adherence plates with endoderm induction media (described above), embryoid bodies were collected and, without being trypsinized, plated on matrigel-coated, 24-well tissue culture plates (approximately 50,000-70,000 cells/well) in SFD medium supplemented with 200 ng/mL recombinant human (rh) Noggin and 10 μM SB431542 (NS) (as described in established protocols Green et al. 2011), with Retinoic Acid (0.25 μM) and FGF8b 50 ng/mL (as a novel modification of this protocol) for 48 hours. For pharyngeal endoderm, the resulting cells were then treated for 24 hours with FGF8b (50 ng/mL) and Retinoic Acid ([…]) followed by 8 days with FGF8b (50 ng/mL) and Sonic Hedgehog (Shh) (100 ng/mL) (FIG. 1B). For the 3rd pharyngeal pouch specification, cells were then exposed to rhNoggin (200 ng/mL) for 6 days, and then to BMP4 (10 ng/mL) until day 30 of differentiation (FIG. 2A). To avoid the formation of teratomas after engrafting in mice, cells were also exposed to survivin inhibitor YM155 (20 nM) (Lee et al. 2013)) for 24 hours during the last step in the later experiments (FIG. 4A). During the entire process, cell cultures were maintained in a 5% C02/air environment at 37° C. Cells were fed every 24 hours.
as §1, with “instructions. NanoDrop 2000 spectrophotometer (ThermoFisher Scientific) was used to determine RNA concentration.” for “instructions.”

ESCs = assay: Flow cytometry / efficiency of definitive endoderm and anterior foregut endoderm induction; format: cell-based, human; conditions: day 4.5 dissociated embryoid bodies
Protocol: The differentiation was performed as described Huang et al. 2014 in serum-free differentiation (SFD) medium consisting of DMEM/F12 (3:1) (Life Technologies) supplemented with N2 [Gibco (Life Technologies)], B27 (Gibco), ascorbic acid (50 μg/ml, Sigma), Glutamax (2 mM, Life Technologies), monothioglycerol (0.4 μM, Sigma), 0.05% bovine serum albumin (BSA) (Life Technologies) and 1% penicillin-streptomycin (Thermo Fisher Scientific, Waltham, Mass.). Cells were then briefly trypsinized (0.05%, 1 min at 37° C.) into single cell suspension and plated onto low attachment 6-well plates [Costar 2 (Corning Incorporated, Tewksbury Mass.)] to form embryoid bodies in serum-free differentiation medium containing human BMP4, 0.5 ng/ml, human bFGF, 2.5 ng/ml (R&D Systems) and human activin A, 100 ng/ml (R&D Systems) for 84 hours (3.5 days approximately) on low-adherence plates. Embryoid bodies were then collected, briefly trypsinized (0.05%, 1 min at 37° C.) into 3-10 small cell clumps and resuspended again in endoderm induction medium for another 24 hours. Cells were fed every 24-48 hr (depending on the density) and maintained in a 5% CO2/5% O2/90% N2 environment. […]
Human immune reconstitution and differentiation efficiency of hES-TEP cultures were determined by multi-parametric flow cytometry. […]

## COCCn1c2c([n+](Cc3cnccn3)c1C)C(=O)c1ccccc1C2=O [YM155]
Pluripotent cells
  OCT4 expression: significantly reduced
NSG mice
  animals developing teratomas: 3 of 15

B1: Noggin: recombinant human Noggin, a BMP4 antagonist and/or inhibitor (protein, UniProt Q13253 28-232, looked up)
Noggin: QHYLHIRPAPSDNLPLVDLIEHPDPIFDPKEKDLNETLLRSLLGGHYDPGFMATSPPEDRPGGGGGAAGGAEDLAELDQLLRQRPSGAMPSEIKGLEFSEGLAQGKKQRLSKKLRRKLQMWLWSQTFCPVLYAWNDLGSRFWPRYVKVGSCFSKRSCSVPEGMVCKPSKSVHLTVLRWRCQRRGGQRCGWIPIQYPIISECKCSC
hESCs; Noggin from day 16 to day 22, protocols #3c and #4c vs #3b and #4b, day 30
  PAX9 expression: significantly increased

B2: BMP4: human Bone Morphogenic Protein 4 (protein, UniProt P12644 293-408, looked up)
Bone morphogenetic protein 4: SPKHHSQRARKKNKNCRRHSLYVDFSDVGWNDWIVAPPGYQAFYCHGDCPFPLADHLNSTNHAIVQTLVNSVNSSIPKACCVPTELSAISMLYLDEYDKVVLKNYQEMVVEGCGCR
hESCs; BMP4 added to day 15 cultures without prior Noggin, assayed at culture day 22 and 30, protocols #3b and #4b
  expression of FoxN1: failed to induce expression
hESCs; protocol #4c, before and after BMP4 exposure
  FOXN1 expression day 30 vs day 21: significantly higher

B3: Activin A: human activin A used in endoderm induction medium (protein, UniProt P08476 311-426, looked up)
Inhibin beta A chain: GLECDGKVNICCKKQFFVSFKDIGWNDWIIAPSGYHANYCEGECPSHIAGTSGSSLSFHSTVINHYRMRGHSPFANLKSCCVPTKLRPMSMLYYDDGQNIIKKDIQNMIVEECGCS
ESCs
  co-expression of endoderm markers EpCAM and CXCR4, cells: 98.3%
